PMC4300955

Target: 53BP1 (UniProt Q12888)
Experiment: co-immunoprecipitation, Western blot
Conditions: reference: wild type MOF, 3-6 h after 10 Gy; sites T392

binding against the reference: stronger
Substance: MOF (hMOF) (from UniProt Q9H7Z6) MOF-T392A, 3-6 h after 10 Gy
